The values that follow come from patent publication US20110086026A1 (ROCHE PALO ALTO, published 2011).

The target in assay [1] is Cynomolgus IL-13Rα1 expressed in transfected Ba/F3 cells (Cynomolgus). As to the kind of experiment: FACS, transfected against parental Ba/F3 cells; negative control.
For assay [2] the target is unchanged. Briefly: FACS on Ba/F3 cells transfected with Cynomolgus IL-13Rα1; negative control.
Assay [3] has as its target T1, human IL-13Rα1 (human, UniProt P78552 22-427).
T1 sequence (looked up): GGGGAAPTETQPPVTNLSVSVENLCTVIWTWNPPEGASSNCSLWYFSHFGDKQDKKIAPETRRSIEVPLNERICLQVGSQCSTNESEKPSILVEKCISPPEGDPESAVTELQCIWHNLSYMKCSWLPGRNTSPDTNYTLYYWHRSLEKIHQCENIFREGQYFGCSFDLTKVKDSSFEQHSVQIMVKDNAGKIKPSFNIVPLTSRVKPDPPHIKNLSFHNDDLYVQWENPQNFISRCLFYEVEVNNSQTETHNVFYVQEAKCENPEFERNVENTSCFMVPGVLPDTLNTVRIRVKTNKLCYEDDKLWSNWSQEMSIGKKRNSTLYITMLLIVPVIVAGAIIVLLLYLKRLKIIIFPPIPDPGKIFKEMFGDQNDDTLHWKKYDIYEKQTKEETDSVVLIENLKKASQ
As to the kind of experiment: cell-based or functional assay.

Assay [4] addresses Cynomolgus IL-13Rα1 expressed in transfected Ba/F3 cells (Cynomolgus). Briefly: FACS, transfected against parental Ba/F3 cells, 10 µg/ml. For orientation: A flow cytometer gives signals particle by particle.
For assay [5] the target is unchanged. As to the kind of experiment: FACS on Ba/F3 cells transfected with Cynomolgus IL-13Rα1, 10 µg/ml.
Assay [6] addresses T1, human IL-13Rα1. As to the kind of experiment: displacement of 125I-IL-13 on CHO cells expressing human IL-13Rα1 and IL-4Rα.
The target of assay [7] is Chimeric protein murine IL-13Rα1:hFc (R&D Systems, UK) (mouse) (UniProt O09030). As to the kind of experiment: ELISA, immobilized murine IL-13Rα1:hFc, detection with anti-goat IgG-POD, OD 405nm. In general terms: ELISA stands for enzyme-linked immunosorbent assay.
Assay [8] deals with extracellular domain of IL-13Rα1 (R&D Systems, UK) (human) (UniProt P78552). Briefly: ELISA, immobilized extracellular domain of human IL-13Rα1, detection with anti-goat IgG-POD, OD 405nm-492nm.
In assay [9] the target is Cynomolgus IL-13Rα1 expressed in transfected Ba/F3 cells (Cynomolgus). Briefly: FACS, transfected against parental Ba/F3 cells; secondary reagent only.
The target is the same in assay [10]. Briefly: FACS on Ba/F3 cells transfected with Cynomolgus IL-13Rα1; secondary reagent only.
In assay [11] the target is T2, extracellular domain of hIL-13Rα1 cleaved from hIL-13Rα1:hFc chimeric protein (human, UniProt P78552 22-343).
T2 construct: extracellular domain; also called Cleaved hIL-13Rα1 molecules (MW 40 kDa)
T2 sequence (looked up): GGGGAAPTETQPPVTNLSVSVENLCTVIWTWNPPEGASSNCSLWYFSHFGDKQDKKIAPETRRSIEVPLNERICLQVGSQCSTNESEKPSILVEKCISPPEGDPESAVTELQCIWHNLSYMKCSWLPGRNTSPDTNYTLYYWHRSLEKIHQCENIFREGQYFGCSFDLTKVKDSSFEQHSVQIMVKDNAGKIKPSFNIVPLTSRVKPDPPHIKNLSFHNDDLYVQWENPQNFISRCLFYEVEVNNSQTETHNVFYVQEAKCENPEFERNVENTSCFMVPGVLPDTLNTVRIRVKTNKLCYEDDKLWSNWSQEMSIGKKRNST
Briefly: SPR Biacore 3000, C1 chip, HuMab captured by anti-hFcγ, cleaved hIL-13Rα1 as analyte, 1:1 Langmuir model. As to the method: For interaction analysis, a Biacore 3000 instrument was used. Running and reaction buffer was HBS-P (10 mM HEPES, 150 mM NaCl, 0.005% polysurfactant P, pH 7.4) at 25° C. Capturing antibody molecules (anti-hFcγ) were amine-coupled at a concentration of 100 μg/ml at a flow rate of 5 μl/min for 20 minutes. HuMabs were injected at concentrations of 10 μg/ml at a flow rate of 10 μl/min for 30 seconds. Cleaved hIL-13Rα1 molecules (MW 40 kDa) were injected for 200 seconds at seven concentrations between 1.56 nM and 100 nM and washed with HBS-P for five minutes. Regeneration of the surface was accomplished by two injections of 100 mM HCl for 1 min each at a flow rate of […]. The chip, assay format and sequence of injections and kinetic data correspond to the description in the following Table 3. Kinetic data were calculated by fitting kinetic data to a 1:1 Langmuir binding model.
In general terms: Surface plasmon resonance follows binding to a sensor surface in real time, without labels.

Assay [12] has as its target T2, extracellular domain of hIL-13Rα1 …. Briefly: SPR Biacore 3000, CM5 chip, HuMab captured by anti-hFcγ, cleaved hIL-13Rα1 as analyte, bivalent analyte model. As for the experimental part: (§1) In these experiments, the affinity of the original IgG1 derived from hybridoma was compared with the affinities of the recombinant variant IgG1-Ala-Ala. For interaction analysis, a Biacore 3000 instrument was used. Running and reaction buffer was HBS-P (10 mM HEPES, 150 mM NaCl, 0.005% polysurfactant P, pH 7.4) at 25° C. Capturing antibody molecules (anti-hFcγ) were amine-coupled at a concentration of 20 μg/ml at a flow rate of 5 μl/min for 20 minutes. HuMabs were injected at concentrations of 10 μg/ml at a flow rate of 10 μl/min for 1 minute. Cleaved hIL-13 Rα1 molelcules (analyte) were injected for five minutes at eight concentrations between 1.56 nM and 200 nM and washed with HBS-P for five minutes. Regeneration of the surface was accomplished by two injections of 100 mM HCl for 1 min each. The chip, assay format and sequence of injections and kinetic data correspond to the description in Table 4. Kinetic data were calculated by fitting kinetic data to a bivalent analyte binding model.

Assay [13] shares this target. As to the kind of experiment: SPR Biacore 3000, CM5 chip, HuMab captured by anti-hFcγ, cleaved hIL-13Rα1 as analyte, bivalent analyte model (ka1). As for the experimental part: as §1
Assay [14] has the same target. As to the kind of experiment: SPR Biacore 3000, CM5 chip, HuMab captured by anti-hFcγ, cleaved hIL-13Rα1 as analyte, bivalent analyte model (kd1). As for the experimental part: as §1

In general, IC50 refers to the point on the concentration scale where inhibition reaches its midpoint. The term EC50 (read off the curve) denotes the concentration at which the effect is half-maximal. One may read the koff as the rate constant with which the complex falls apart. A lower koff goes with a long-lived complex. The term kon denotes the second-order rate constant of association. A high value points to fast association.

Chain of Chimeric protein murine IL-13Rα1:hFc (R&D Systems, UK) (mouse) (O09030 26-340, change not shown): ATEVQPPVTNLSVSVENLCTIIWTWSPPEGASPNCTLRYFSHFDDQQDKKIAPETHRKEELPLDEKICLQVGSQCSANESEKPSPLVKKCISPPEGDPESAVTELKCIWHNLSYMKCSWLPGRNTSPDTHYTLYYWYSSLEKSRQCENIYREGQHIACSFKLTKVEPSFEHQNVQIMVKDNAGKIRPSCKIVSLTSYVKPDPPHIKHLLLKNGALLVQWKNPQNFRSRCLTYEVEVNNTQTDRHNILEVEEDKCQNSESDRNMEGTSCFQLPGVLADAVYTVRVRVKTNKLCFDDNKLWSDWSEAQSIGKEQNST

For Normal human IgG1 (Nordic) (antibody), the Fold Increase in MFI in the presence of Cyno IL-13Rα1 in assay [1] was found to be 6.7. Also, the MFI Ba/F3 Cyno IL-13Rα1 in [2] came out at 10.2 MFI.

In the case of Normal goat IgG (antibody), the Fold Increase in MFI in the presence of Cyno IL-13Rα1 in assay [1] stood at 2.4. In addition, the MFI Ba/F3 Cyno IL-13Rα1 in assay [2] was 5.7 MFI.

In the assay with human IL-13Rα1 [3], “polyclonal goat anti-hIL-13Rα1 antibody AF152 (R&D Systems)” displayed an IC50, IL-13-induced Stat-6 phosphorylation in BSMC of 18.6 nM; an IC50, TF-1 proliferation in response to IL-13 of 13.5 nM; an IC50 for IL-4-induced TF-1 proliferation of 74.4 nM; an IC50 for inhibiting of CD23 upregulation on B-lymphocytes (IL-13 induced) of 13.6 nM. In the assay with human IL-13Rα1 [3], this molecule had an IC50 for inhibition of IL-13 induced CD23 upregulation on human monocytes of 62.9 nM and an average IC50, eotaxin release of HFL-1 cells in response to IL-13 of 11.5 nM. For the same molecule, in assay [4], the Fold Increase in MFI in the presence of Cyno IL-13Rα1 stood at 18. The same molecule registered an MFI Ba/F3 Cyno IL-13Rα1 in assay [5] of 21.2 MFI. Besides, in the assay with human IL-13Rα1 [6], the IC50 came out at 84.8 nM. In assay [7], this molecule had an EC50 (read off the curve) of 0.2 nM. Moreover, the EC50 (read off the curve) in [8] turned out to be 0.6 nM.

In the case of Anti human IgG-FITC only (antibody), in assay [9], the Fold Increase in MFI in the presence of Cyno IL-13Rα1 was 2.2. In addition, in assay [10], the MFI Ba/F3 Cyno IL-13Rα1 is 5.5 MFI.

B1: LC5002-005, mutant L234A; L235A (antibody, V domains shown)
VH: EVQVLDSGGGLVQPGGSLRLSCTASGFTFRLYTMSWVRQTPGRGLEWVSGISGSGLSTYFADSVKGRFTISRDNSKNTVYLQMNSLRAEDTAVYYCAKEGDWIYFDSWGQGTLVIVSS
VL: DIQMTQSPSSLSASVGDRVTITCRASQGISSWLAWYQQKPEKAPKSLIYAASSLQSGVPSRFSGSGSGTDFTLTISSLQPEDFATYYCQQYNSHPPTFGQGTKLEIKR
notes: Recombinant IgG1 variant; also called IgG1 ala-ala LC5002-005; recombinant variant IgG1-Ala-Ala
Turning to B1, the figures for the Kd in [11] and in [12] were 0.21 nM and 2.8 nM, respectively. Besides, the off-rate constant (koff) in [11] was found to be 0.00029 s⁻¹; in [14] it was 0.00042 s⁻¹. Moreover, the kon in [11] was determined as 1.4e+06 M⁻¹ s⁻¹; in [13], 153000 M⁻¹ s⁻¹.
